Results reported in patent US20240132615A1.

Columns and labels:
[1] = biological target: soluble BCMA (UniProt Q02223); assay: cell-based or functional assay
[2] = biological target: human CD38 on multiple myeloma cells (human) (UniProt P28907); assay: flow cytometry on NCI-H929 BCMA KO cells (BCMA-negative, CD38-positive)

Sequence of soluble BCMA (Q02223 1-54 limits assumed): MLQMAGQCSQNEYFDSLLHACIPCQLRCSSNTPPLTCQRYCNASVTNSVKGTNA

Maximum binding (RFI) [2] [RFI]	Substance	Fold difference to no soluble factor condition (EC50 from % Cytotoxicity), sBCMA [1] [fold]	Fold difference to no soluble factor condition (EC50 from % Killing to No Ab), sBCMA [1] [fold]
101	alnuctamab (bispecific antibody)	380	367
104	teclistamab (bispecific antibody)	75	30
